Source: patent US20180044374A1
Values joined by “and” are separate entries in the source; they are usually repeats but may differ in a detail not shown here. Identical values can stand only once.

Assays:
[1] = target: human polyclonal IgG (Gammanorm) (human); experiment: dynamic binding capacity; matrix C2, ligand […]
[2] = target: human polyclonal IgG (Gammanorm) (human); experiment: dynamic binding capacity; matrix C3, ligand […]; settings: ligand content 5.9 mg/ml
[3] = target: human polyclonal IgG (Gammanorm) (human); experiment: dynamic binding capacity; matrix A20, ligand […]
[4] = target: human polyclonal IgG (Gammanorm) (human); experiment: dynamic binding capacity; matrix A32, ligand […]
[5] = target: human polyclonal IgG (Gammanorm) (human); experiment: dynamic binding capacity; matrix A42, ligand […]
[6] = target: human polyclonal IgG (Gammanorm) (human); experiment: dynamic binding capacity; matrix A62b, ligand […]; settings: ligand content 5.2 mg/ml
[7] = target: human polyclonal IgG (Gammanorm) (human); experiment: dynamic binding capacity; matrix A65b, ligand […]
[8] = target: human polyclonal IgG (Gammanorm) (human); experiment: dynamic binding capacity; matrix A29, ligand 11 mg/ml
[9] = target: human polyclonal IgG (Gammanorm) (human); experiment: dynamic binding capacity; matrix A18, ligand 8.2 mg/ml
[10] = target: human polyclonal IgG (Gammanorm) (human); experiment: dynamic binding capacity; matrix A20, ligand 7.3 mg/ml
[11] = target: human polyclonal IgG (Gammanorm) (human); experiment: dynamic binding capacity; matrix A28, ligand 7.9 mg/ml
[12] = target: human polyclonal IgG (Gammanorm) (human); experiment: dynamic binding capacity; matrix A29, ligand 7.3 mg/ml
[13] = target: human polyclonal IgG (Gammanorm) (human); experiment: dynamic binding capacity; matrix A33, ligand 7.3 mg/ml
[14] = target: human polyclonal IgG (Gammanorm) (human); experiment: dynamic binding capacity; matrix A33, ligand 9.4 mg/ml
[15] = target: human polyclonal IgG (Gammanorm) (human); experiment: dynamic binding capacity; matrix A38, ligand 7.5 mg/ml
[16] = target: human polyclonal IgG (Gammanorm) (human); experiment: dynamic binding capacity; matrix A40, ligand 6.1 mg/ml
[17] = target: human polyclonal IgG (Gammanorm) (human); experiment: dynamic binding capacity; matrix A41, ligand 5.0 mg/ml
[18] = target: human polyclonal IgG (Gammanorm) (human); experiment: dynamic binding capacity; matrix C1, ligand 10.8 mg/ml
[19] = target: human polyclonal IgG (Gammanorm) (human); experiment: dynamic binding capacity; matrix C2, ligand 10.5 mg/ml
[20] = target: human polyclonal IgG (Gammanorm) (human); experiment: dynamic binding capacity; matrix C4, ligand 10.1 mg/ml
[21] = target: human polyclonal IgG (Gammanorm) (human); experiment: dynamic binding capacity; matrix H40, ligand 9.1 mg/ml
[22] = target: human polyclonal IgG (Gammanorm) (human); experiment: dynamic binding capacity; matrix A18, ligand 13.4 mg/ml
[23] = target: human polyclonal IgG (Gammanorm) (human); experiment: dynamic binding capacity; matrix A20, ligand 10.6 mg/ml
[24] = target: human polyclonal IgG (Gammanorm) (human); experiment: dynamic binding capacity; matrix A28, ligand 11.9 mg/ml
[25] = target: human polyclonal IgG (Gammanorm) (human); experiment: dynamic binding capacity; matrix A38, ligand 11.3 mg/ml
[26] = target: human polyclonal IgG (Gammanorm) (human); experiment: dynamic binding capacity; matrix A38, ligand 7.45 mg/ml
[27] = target: human polyclonal IgG (Gammanorm) (human); experiment: dynamic binding capacity; matrix A40, ligand 11.0 mg/ml
[28] = target: human polyclonal IgG (Gammanorm) (human); experiment: dynamic binding capacity; matrix A41, ligand 8.83 mg/ml
[29] = target: human polyclonal IgG (Gammanorm) (human); experiment: dynamic binding capacity; matrix A43, ligand 6.99 mg/ml
[30] = target: human polyclonal IgG (Gammanorm) (human); experiment: dynamic binding capacity; matrix A62a, ligand 6.6 mg/ml
[31] = target: human polyclonal IgG (Gammanorm) (human); experiment: dynamic binding capacity; matrix A62a, ligand 7.5 mg/ml
[32] = target: human polyclonal IgG (Gammanorm) (human); experiment: dynamic binding capacity; matrix A62a, ligand 9.7 mg/ml
[33] = target: human polyclonal IgG (Gammanorm) (human); experiment: dynamic binding capacity; matrix A63a, ligand 6.1 mg/ml
[34] = target: human polyclonal IgG (Gammanorm) (human); experiment: dynamic binding capacity; matrix A65b, ligand 8.8 mg/ml
[35] = target: human polyclonal IgG (Gammanorm) (human); experiment: dynamic binding capacity; matrix A38, ligand 11.34 mg/ml
[36] = target: human polyclonal IgG (Gammanorm) (human); experiment: dynamic binding capacity; matrix A39, ligand 10.48 mg/ml
[37] = target: human polyclonal IgG (Gammanorm) (human); experiment: dynamic binding capacity; matrix A62a, ligand 14.8 mg/ml
[38] = target: human polyclonal IgG (Gammanorm) (human); experiment: dynamic binding capacity; matrix A65a, ligand 13.1 mg/ml

Substance “Zvar(Q9A, N11E, Q40V, A42K, N43A, L44I)4 (designed binder)” has a Qb10% 2.4 min [1] of 39 mg/mL, a Qb10% 6 min [1] of 46 mg/mL and a Qb10% 2.4 min [2] of 44 mg/mL. It also gave a Qb10% 6 min [2] of 52 mg/mL, a Qb10% 2.4 min [3] of 49 mg/mL and a Qb10% 6 min [3] of 67 mg/mL. It also gave a Qb10% 2.4 min [4] of 40 mg/mL, a Qb10% 6 min [4] of 57 mg/mL and a Qb10% 2.4 min [5] of 32.2 mg/mL. It also gave a Qb10% 6 min [5] of 57.8 mg/mL, a Qb10% 2.4 min [6] of 40 mg/mL and a Qb10% 2.4 min [7] of 42 mg/mL. For the same substance, the Qb10% 6 min [7] was 46 mg/mL, the Qb10% 2.4 min [8] was 34.9 mg/mL and the Qb10% 6 min [8] was 64.7 mg/mL. The Qb10% 2.4 min [9] was 52 mg/mL, the Qb10% 6 min [9] was 59 mg/mL and the Qb10% 2.4 min [10] was 45 mg/mL and 45.1 mg/mL. For the same substance, the Qb10% 6 min [10] was 57 mg/mL and 57.2 mg/mL, the Qb10% 2.4 min [11] was 42.4 mg/mL and 42 mg/mL and the Qb10% 6 min [11] was 58.2 mg/mL and 58 mg/mL. The Qb10% 2.4 min [12] was 36.3 mg/mL, the Qb10% 6 min [12] was 51.8 mg/mL and the Qb10% 2.4 min [13] was 49 mg/mL. For the same substance, the Qb10% 6 min [13] was 56 mg/mL, the Qb10% 2.4 min [14] was 51 mg/mL and the Qb10% 6 min [14] was 58 mg/mL. The Qb10% 2.4 min [15] was 44 mg/mL, the Qb10% 6 min [15] was 58 mg/mL and the Qb10% 2.4 min [16] was 49 mg/mL. For the same substance, the Qb10% 6 min [16] was 59 mg/mL, the Qb10% 2.4 min [17] was 35.6 mg/mL and the Qb10% 6 min [17] was 46 mg/mL. For the same substance, the Qb10% 2.4 min [18] was 43 mg/mL, the Qb10% 6 min [18] was 60 mg/mL and the Qb10% 2.4 min [19] was 42 mg/mL. The Qb10% 6 min [19] was 57 mg/mL, the Qb10% 2.4 min [20] was 55 mg/mL and the Qb10% 6 min [20] was 63 mg/mL. For the same substance, the Qb10% 2.4 min [21] was 52 mg/mL, the Qb10% 6 min [21] was 67 mg/mL and the Qb10% 6 min [22] was 63 mg/mL. For the same substance, the Qb10% 2.4 min [23] was 50.7 mg/mL and 51 mg/mL, the Qb10% 6 min [23] was 70.1 mg/mL and 70 mg/mL and the Qb10% 2.4 min [24] was 39.9 mg/mL and 40 mg/mL. The Qb10% 6 min [24] was 63.8 mg/mL and 64 mg/mL, the Qb10% 2.4 min [25] was 48 mg/mL and the Qb10% 6 min [25] was 73 mg/mL. The Qb10% 2.4 min [26] was 44.4 mg/mL, the Qb10% 6 min [26] was 58.2 mg/mL and the Qb10% 2.4 min [27] was 55 mg/mL. For the same substance, the Qb10% 6 min [27] was 74 mg/mL, the Qb10% 2.4 min [28] was 38.5 mg/mL and 37.8 mg/mL and 35.1 mg/mL and the Qb10% 6 min [28] was 56.8 mg/mL and 58.6 mg/mL and 57.2 mg/mL. For the same substance, the Qb10% 2.4 min [29] was 33.4 mg/mL, the Qb10% 6 min [29] was 49.8 mg/mL and the Qb10% 2.4 min [30] was 41 mg/mL. The Qb10% 6 min [30] was 46 mg/mL, the Qb10% 2.4 min [31] was 47 mg/mL and the Qb10% 6 min [31] was 56 mg/mL. It also gave a Qb10% 2.4 min [32] of 48 mg/mL, a Qb10% 6 min [32] of 60 mg/mL and a Qb10% 2.4 min [33] of 39 mg/mL. It also gave a Qb10% 6 min [33] of 44 mg/mL, a Qb10% 2.4 min [34] of 49 mg/mL and a Qb10% 6 min [34] of 56 mg/mL. For the same substance, the Qb10% 2.4 min [35] was 48.1 mg/mL, the Qb10% 6 min [35] was 72.8 mg/mL and the Qb10% 2.4 min [36] was 44.4 mg/mL. For the same substance, the Qb10% 6 min [36] was 64.8 mg/mL, the Qb10% 2.4 min [37] was 55 mg/mL and the Qb10% 6 min [37] was 62 mg/mL. It also gave a Qb10% 2.4 min [38] of 56 mg/mL and a Qb10% 6 min [38] of 64 mg/mL.
